These results are taken from patent publication US20260274910A1, “SINGLE FUSION PROTEIN AND PHARMACEUTICAL COMPOSITION” (MEDI&GENE INC., priority 2023, published 2026).

Chain of ATP5B protein (P06576 48-529): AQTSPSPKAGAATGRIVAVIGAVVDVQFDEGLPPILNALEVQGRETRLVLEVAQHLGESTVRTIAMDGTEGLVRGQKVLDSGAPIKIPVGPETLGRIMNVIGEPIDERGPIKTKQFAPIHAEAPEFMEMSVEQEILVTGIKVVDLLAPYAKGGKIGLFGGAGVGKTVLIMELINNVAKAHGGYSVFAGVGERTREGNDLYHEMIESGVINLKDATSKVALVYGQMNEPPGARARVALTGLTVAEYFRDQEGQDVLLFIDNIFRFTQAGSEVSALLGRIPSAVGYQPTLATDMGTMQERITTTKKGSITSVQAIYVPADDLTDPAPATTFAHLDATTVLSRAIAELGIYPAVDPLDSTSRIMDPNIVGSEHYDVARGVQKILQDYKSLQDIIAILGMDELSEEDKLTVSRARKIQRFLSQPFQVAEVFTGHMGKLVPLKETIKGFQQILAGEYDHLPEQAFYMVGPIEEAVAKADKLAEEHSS

The assay concerns the target ATP5B protein. The assay is described as follows: SPR, ATP5B amine-coupled to CM5 chip, peptide in flow at 50 ul/min; binding units relative to SEQ ID NO: 12.
Molecule VDRGAGSIRAAGGAFGKREQAEEERYFR [Shortened substance (8-35) amino acid Ala substituted (17)] registered a Binding (%) of 169%.

Regarding VDAGAGSIREAGGAFGKREQAEEERYFR [Shortened substance (8-35) amino acid Ala substituted (10)], the Binding (%) came out at 104%.

VDRGAASIREAGGAFGKREQAEEERYFR [Shortened substance (8-35) amino acid Ala substituted (13)] registered a Binding (%) of 98.5%.

VDRGAGSIREAGGAFGKREQAEEEAYFR [Shortened substance (8-35) amino acid Ala substituted (32)] displayed a Binding (%) of 426%.

The molecule VDRGAGSIREAGGAFGAREQAEEERYFR [Shortened substance (8-35) amino acid Ala substituted (24)] came in with a Binding (%) of 100%.

VDRGAGSIREAGAAFGKREQAEEERYFR [Shortened substance (8-35) amino acid Ala substituted (20)] came in with a Binding (%) of 68%.

VDRGAGSIREAGGAFGKREAAEEERYFR [Shortened substance (8-35) amino acid Ala substituted (27)] showed a Binding (%) of 89.5%.

Take VDRGAGSIREAGGAFGKREQAEEERAFR [Shortened substance (8-35) amino acid Ala substituted (33)]: the Binding (%) was 146%.

Molecule VARGAGSIREAGGAFGKREQAEEERYFR [Shortened substance (8-35) amino acid Ala substituted (9)] gave a Binding (%) of 91.6%.

With VDRGAGAIREAGGAFGKREQAEEERYFR [Shortened substance (8-35) amino acid Ala substituted (14)], the Binding (%) came to 98.8%.

VDRGAGSIREAGGAAGKREQAEEERYFR [Shortened substance (8-35) amino acid Ala substituted (22)] had a Binding (%) of 94%.

In the case of VDRGAGSIREAGGAFAKREQAEEERYFR [Shortened substance (8-35) amino acid Ala substituted (23)], the Binding (%) was found to be 102%.

For the molecule VDRGAGSIREAGGAFGKREQAEEERYFA [Shortened substance (8-35) amino acid Ala substituted (35)], the Binding (%) worked out at 110%.

In turn, VDRGAGSIREAGGAFGKREQAEAERYFR [Shortened substance (8-35) amino acid Ala substituted (30)] came in with a Binding (%) of 94%.

VDRGAGSIREAGGAFGKREQAAEERYFR [Shortened substance (8-35) amino acid Ala substituted (29)] returned a Binding (%) of 96.7%.

VDRGAGSIREAGGAFGKRAQAEEERYFR [Shortened substance (8-35) amino acid Ala substituted (26)] came in with a Binding (%) of 94.1%.

As for VDRGAGSIREAAGAFGKREQAEEERYFR [Shortened substance (8-35) amino acid Ala substituted (19)], the Binding (%) worked out at 89.6%.

VDRAAGSIREAGGAFGKREQAEEERYFR [Shortened substance (8-35) amino acid Ala substituted (11)] had a Binding (%) of 100%.

The molecule VDRGAGSIREAGGAFGKAEQAEEERYFR [Shortened substance (8-35) amino acid Ala substituted (25)] gave a Binding (%) of 85.2%.

VDRGAGSIREAGGAFGKREQAEEARYFR [Shortened substance (8-35) amino acid Ala substituted (31)] returned a Binding (%) of 158%.

For the molecule VDRGAGSIREAGGAFGKREQAEEERYAR [Shortened substance (8-35) amino acid Ala substituted (34)], the Binding (%) worked out at 92.1%.

On to VDRGAGSIAEAGGAFGKREQAEEERYFR [Shortened substance (8-35) amino acid Ala substituted (16)], for which the Binding (%) was 97%.

Consider VDRGAGSIREAGGAFGKREQAEEERYFR [Shortened substance (8-35)], for which the Binding (%) was 100%.

The molecule ADRGAGSIREAGGAFGKREQAEEERYFR [Shortened substance (8-35) amino acid Ala substituted (8)] registered a Binding (%) of 101%.

VDRGAGSAREAGGAFGKREQAEEERYFR [Shortened substance (8-35) amino acid Ala substituted (15)] yielded a Binding (%) of 99.3%.
